Source: the NTF2 design screens of Basanta et al. (2020)

Test: protease stability score; higher = more stable; yeast display proteolysis, trypsin and chymotrypsin;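 note: log10 excess protease needed over predicted unfolded state with 0 meaning unfolded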

Row | Sequence | protease stability score
1 | DDDAARQFEEVMKAVEHGDPHQVEELVDPNATFNVGDKRWHGMRENMQEHISRFQSINMTVEIKRVEDTNGRAKFEASVTRNDNGKPDTFTVEIVVRVHNGEIKEVQLNNTK | 0.158
2 | DDDADRRARKLDQARKEGDPDKMRKNMDPNVRMQIGDQEWSGRETIANKLATDLKRMDIEITIKRYTWHNGTADIDADETFNVDGRPNSDKVRMEVHFHNGRVEHQILRVPEEFKHRLHK | -0.115
3 | DDDAIKRFHEQVDNEQHNNEEEQEKNVDPNATVNVGDKTYHGREKWREVVKRENEEMRVKYQHVTFRRHPGRVIVRFRIVNDHNGKPTETDVNANYQMHNGRIRQVNRRTDG | 0.162
4 | DDDALRRAKEMDDQIKNGNEHEYQKMVDPNAREHIGDTTYSGRENLVKLVRDRRRHMREKVDITEMESSGDKLRIVYRAEQEHNGQPRKKRRRKVIRLSNGRVQEVKVVDDQ | 0.4
5 | DDDALRRLEELWSALEEGDESRVNRNIDPNARLKIGDTTIHGREKLAESLVRDWKEIKLEIEFKTLEAHNGQARLEAIEHFRINGRPEQINFRMQMHQRNGNVDEIVIEMDPDQQRKKES | -0.133
6 | DDDAMRKAHEFYTAYNTNDEDTLSKQFDPNARIRYGDEVIHGREQLKKWMEEIQREMSVSVRVKSMKVRGDEIHIKFDMTVDINGNPLEFDAQAEFRFRNGKFIDFTLQIPEEAQKQEHG | 0.704
7 | DDDAQNTLSDRINLIKQGNKEEVDKQADPNATVQVGDKKVQGREEIRRWIKHVKDQLNVQIEIKHVEAQGNKVRIDASFRARINGKPVRIRFILIADMHNGRFKRVVMHLDEDQQRKYEK | 0.943
8 | DDDAQRIAEDIQNALRKGDPERLNHLVDKNVKFVIGDKTIHGREDAAKQWHTMNRQMRIEVEMKHWDQQGNEVTIVARFVYEHNGRPETKRITRTITFHNGRAKEVVQKDDS | 0.09
9 | DDDAQRRLEDQLKQIEEGNPEQIRNQVDPNATLRYGDKTIQGREEIVKWWKRIRDESRIQFHLKSMEVSGDQVRVVFNLVVKHNGKPSHSQVVVTLRFHNGKVTEVSMQHTS | 1.71
10 | DDDAQRRVKTYFNLLLTGNPENLKNQVDEDVRVEIGDKEIRGSDQVAHHARQLHTEMRIHARIDDMKVQGDHIRVEVRLYFERNGQPRTKNLRASVRWHNGKMKEFVVKNDD | 0.682
11 | DDDAQRVLNEFWRHWRRGNEEELKKLVDPNAQFEVGNKTFHGREHYANYLRRVSEEMTFDINIKDMSVEGDQVVIDATIMVQVNGNPISIKVIWRANATNGKIKYLSLQIDEDMVRQQQS | 0.445
12 | DDDARDLMKEVLTAQKNNDPKHVRKLFDPNANIKYGDREVTGMDHAAKTLVDHIQQIRLQIDSVTLEVQGDTIIVHAQMVNDRNGNPDSTRFVLEAKVDGDKFKSQDKQEDS | -0.524
13 | DDDARERVDELLEVEQTGNREDIKRLVDPNAKVQVGDDEYHGMEVYAETVVKKRKEINIELRFKDMQVHNGRANADVEAVYDHNGRPSRMRFVLHFVIRNGKFKEIRLREDR | 1.2
14 | DDDARRVINDALEAMNSNNESQLAHLFDPNATFEVGDREIHGRDDFREWVRQMQEEMRFSVSVRDVQERPNHVKFDVEYEEEKNGNPDKHRAVLKARARNGKITELKLDNHK | 0.075
15 | DDDASRRFHEFVKLVRTNNPHKAMEMVDPNARFHIGDKEIHGREDVRRWVSRMLREARVTIDLKSLDVQGEKVKVTNLVRRRHNGEPQQMSVHAQVVWHNGKIKQETAHFKG | 0.127
16 | DDDATKVVKEFLSALKTNNPDRARELIDKDVRVRVGDKEIHGREQLITHIETDLKKIRIEIKHMHIDVTGEDIIIHQVFVDEHNGRPHTQTVVVFIEMNNGRVKNVRSETSS | 0.322
17 | DDDAVRKARELQKAYDHGDEQKVRDLADPNARVRVGDKKLHGMEDIAHTLAERDKQIDNTVRVDRITAHNGRVDANLRMRNNNNGRPNNFELDLKVVVDNGNIVDVDRQNNR | -0.207
18 | DDDAVRKLRELIKAVKDGDPSRAKELMDPNAEIVVGDHYIRGMDNFDKEIDRQKKEARVEYRLKRVRHDENHIKVDAEVIFNVNGRPVTFKLKMRVKLHNGKMIEVEQQVDESSIERVKS | 1.01
19 | DDDAVRLFKEELKAEKNNNPDKIRELADPNARFKVGDKTVHGRESWARTVETRAREIRNDIDVKSYDNDNGRADIKMTVHQEENGRPQHNEASANITADNGRLKEVQIHSRP | -0.356
20 | DDDAVRQAQENLKAIEDGDEDKVRNLMDPNAQVNIGDKTIHGMEEFMRQMKRKLDEIRVDYEDIKIDKQGDKARLDATWRQDDNGEPHSMKVDVDVKFRNGKIVDWQQQYDG | -0.149
21 | DDDAVRQVHTFWRILERGNSDRATEMLDENARVEVGDRSLHGREKIVTQQYRLYTQARIEVERYSAQDHGNKVHAFVLVVVHVNGTPHRFTVDVNFVFQNGRFKSIHLQVSEEQLRQEER | 0.604
22 | DDDAVRRMKEFEEAKQHGDPDELRRLADPNVRLEYGDKEIHGRDTMAQTLKNEVDEIRMEVDFRHFTSQGDKVSIQAEQSRDNNGQPQSVKAQFDARFHNGRLKHLRVQLDG | 0.114
23 | DDDDLKRITEFLKNEQKGNSEELRKLADPNATFQIGDKTIKGRDKFANEAKKRRDEMHFQYKSVHMRDHNGVAVFSVTWILDHNGKPEENTFTLQAKLTNGKIKMLRLQSRK | -0.012
24 | DDDDMKLAEEFAQAISTGDHNRVEENADKDARFDIGDKVVNGNHQRATEVKKEQDDQKVSVDINSMDATGNKVVAEINVDINNNGHPETQEHILHFTQDNGKIRHMEVKDDQ | -0.685
25 | DDDDNKTAQDRMRTNDFTTLARHAPEDAHAQIGDTTVTGRRKLEEIVVKFREQVDHMEIKDIRTSGEKVFIDLHATFDGHTVRLVIEVEVKNGRLQKLFFRVTDPERAKEIVEQLD | 0.362

Row | Sequence | protease stability score
26 | DDDDQLRSMIKSYNDNFQRGDFVRLLKMAPPDVKIRIGEDEISGREKANEFATRLEEEVDQVEAEIKSVTAHNGKASADILVEVNHNGETKHFTIEVHFDLQNGEVHLTEVVYK | 0.79
27 | DDDEARHRAEEIVRQMQSNNWKDIDKLMDKNVQIRVGDKRYTGRTRARKFIKTIADRVDHAHVVNVTVQGNKARFEFIARFDGEHVRMQMVFELHNGHAKKVEVDPEELKQLKK | 1.04
28 | DDDEARKALQWFSTGDPDKLKKNVDENAKVQIGDKEYQGRDQAATALVKLQKRVDHVEIKHVSIDGDDVVVDLVLNVDGHEVRFTNEFRVENGKFQDVHINVTNEEDEKILKRVLG | 0.932
29 | DDDEIEKIARQLVKALQKGDFKHFVELMDKDVRLEYGDKEVHGREQAKQAMKELAERVDHVQLDDYKVHNGTAEIRLKLNFNGKSADVVFDMRIEDGRVKKIVIRYRSEEHRKHIDT | 1.24
30 | DDDEIRRLAKRVVKALHDGDPDEMMRLADENAKIDVGDHRIRGREQLRDFVKQLTEDVDHIRIHDYRVTPNHARVVVVVDHNGQKSTFVVEAHMDNGTIKSMRFHER | 0.462
31 | DDDEMHKLVEHAIKAWETGDHKKAMDLIDPNAKVDVGDREIHGREEFSHHVREINKKVDRVDVQDYKVRGNKAQVRMQFNVNGQTVVVNLVFVMSNGRLSRVQIDVTDPDKFRSAQS | 0.138
32 | DDDEMRELIKSIEEVLTDGDPDEFLKQIDPNAKAQYGDTRVSGSEEIRKMAEKFSDRVDHVDVRDIKVSGDTATFDMQIDHNGRNDTVIMIVEAHNGKVKHVQYHKG | 0.142
33 | DDDEMRKLLTRLADNYKHNDPNKLAEQMDPDVEIEIGDKTYHGRENVMKHWKEQHERVDHVNIQHLDAQGENLVMTFNVTVNGKHVTVRIIFNVKNGRIKSVIVDPDDIKKLEG | 1.48
34 | DDDENKNVLKRVVDILRTGDDKKMQKLADPNARLIVGDKTYHGREDMMHWVKELKQDVDHMKVEQIEVRGERARAILVAEVNGQQRRYLLIITVHNGRLKQMEVRSQ | 1.91
35 | DDDEVRKAMRAVTNFFKGNPDQVMELIDPNAHIQVGDKSVTGREQARHLVKDVKEEQQFDVQSVDARDHGSKIVINVRFEVRHNGQPREKFMVLEMSVHNGKIQEMRVRTDS | 0.946
36 | DDDEVRKIREFMHVMSRGDSNRAMEMADPNAHFKVGDKTINGRESFKSWLRKQREEIHVQIDDVTNTSEPGHVEVNADVTFEHNGQPDRVTLIMIARLKNGRITFLEIRRKK | 1.33
37 | DDDEVRKLVHNLERGNFDDFVRQADPNAKVTIGNKTYHGREDIKSAYKKLKDQVDHLEVKRVRHHNGRLNVERIVVVNGRNIRYHVRLTIHNGRIKHIRYQATNEEQQKWMDEVIK | 0.559
38 | DDDHARRLAERFIKAFQKGDEERAKDLAPPDVKVHVGDTQYNGREQMKQAVKDFRERVDHLSVETIKVRNGRVEVHATANINGVEVNVVFTFVFRNGKMKSMDLKYRDEEAHRNWTS | 1.19
39 | DDDHATEIAKRMIDNFTTGNEENVKRLVDPNATVRIGDKRFHGRDHIRDAIRQIKERIDHIQVRTFTAHNGRIRITAEVKINGQSKEIHIELRIHNGHVVFFQLNVRNEEEWKTALS | 1.05
40 | DDDHLRKVEDFMRAQLEGDPDRLKQLADPNVRMNVGEKKVHGMQDIATEQASTYKTARYEIKSLDSKTEGDKVVITMRVQADNNGQPHDETFHLKARLENGKIVEQSKENDG | -0.529
41 | DDDKAKEIARQVWHAIREGDEDEAKRQFDKNARVVYGDKTVHGKEQAARMVHEWRRRIDHLEINDMKVDGNSVHVVFRYVHNGRERTQVVRIELDNGRVKNAEFTDQ | 1.46
42 | DDDKDRKIAEEITKLLKHGNPDELARQADPNVRLEVGDHVYHGRHQMVEWVKHFWERADHLRIKDVTTRPGHVDLVATLRFDGKEAEFKVTFEFHNGRLKRVEVDPEFQKQIDS | 1.56
43 | DDDKERKARKFAEIYMHGDWRKAHQYADPNVRIKVGDKTFQGRESLAKLVESLRKEQRLEMKRVEARVTNGRINLHLRFVVQKNGTPSHRRIHFDARMHNGKLKEMTENDKR | 0.115
44 | DDDKIRKDAETFVKILETGNQERAQRMFDENAHMRIGDKTYHGRESVHKAIKTIRDEVDHVQVRHIDIQGEEVIIQMRFDHNGNQDIMTINLVIKNGRIKSATYTRP | 0.537
45 | DDDKKAHKFFSEMLTAIQTGNEDQLRHLVDKDAHINVGDDVITGRENIVETWREKRERVDDLDAKVDSYHVHNGRIEIRAKESSTKNGKSDSRDFRIQARLTNGHVKLQKKEQN | -0.348
46 | DDDKKAKNWMERMLHIFREGDEDSYKNNFDENAEINIGDKTYHGRDRVQRLFSEIKHNVDHLKIQFQDFSTHNGRWVLIFEYSRTHNGHTEQNVIVVNMEQHNGKVVVKSMREK | 0.636
47 | DDDKQRKVEQVNRAWNEGDEETWKNNFDPNARVNVGEFNYEGMEEISKNIRDQKEQWRIEFKRMDLNMHGNKATAHFEATTNHNGNPDEFRKRLEAEFQGDRLKHMRVTEDR | -0.235
48 | DDDKRAEDWAKELIKVEQEGDEDQMERNADEDVRLKYGDTEIHGREQFREHVREQIERVDSVDVRIETFHMHNGRLDMVAEVEVQVDGRKHKDRFVFHAVDHNGRMLLKSASEG | 0.522
49 | DDDKRANQFFRDMLRVFKNNNEKEAEKLFPPDANQNVGEERVHGREQFRKEFVDDARNVDHWEARIVDLDVKNGRIVIRFEFVKDVNGRKNKDVRTLTVVNHNGRLVIERVNSG | 0.882
50 | DDDKRHLAQRFFEAMKRGDPRQALNNMDPNARVVIGDKVIRGRDKFHEHIDKLNKHQRVQYRDVKLHDQGDKITANVDVVRNENGRPHRNVYVAEFSARNGRLTEVEMREDK | -0.138
